In IntAct's records for PubMed 20861839:

B1: Symplekin (Homo sapiens), Q92797 (parent)
chain: MASGSGDSVTRRSVASQFFTQEEGPGIDGMTTSERVVDLLNQAALITNDSKITVLKQVQELIINKDPTLLDNFLDEIIAFQADKSIEVRKFVIGFIEEACKRDIELLLKLIANLNMLLRDENVNVVKKAILTMTQLYKVALQWMVKSRVISELQEACWDMVSAMAGDIILLLDSDNDGIRTHAIKFVEGLIVTLSPRMADSEIPRRQEHDISLDRIPRDHPYIQYNVLWEEGKAALEQLLKFMVHPAISSINLTTALGSLANIARQRPMFMSEVIQAYETLHANLPPTLAKSQVSSVRKNLKLHLLSVLKHPASLEFQAQITTLLVDLGTPQAEIARNMPSSKDTRKRPRDDSDSTLKKMKLEPNLGEDDEDKDLEPGPSGTSKASAQISGQSDTDITAEFLQPLLTPDNVANLVLISMVYLPEAMPASFQAIYTPVESAGTEAQIKHLARLMATQMTAAGLGPGVEQTKQCKEEPKEEKVVKTESVLIKRRLSAQGQAISVVGSLSSMSPLEEEAPQAKRRPEPIIPVTQPRLAGAGGRKKIFRLSDVLKPLTDAQVEAMKLGAVKRILRAEKAVACSGAAQVRIKILASLVTQFNSGLKAEVLSFILEDVRARLDLAFAWLYQEYNAYLAAGASGSLDKYEDCLIRLLSGLQEKPDQKDGIFTKVVLEAPLITESALEVVRKYCEDESRTYLGMSTLRDLIFKRPSRQFQYLHVLLDLSSHEKDKVRSQALLFIKRMYEKEQLREYVEKFALNYLQLLVHPNPPSVLFGADKDTEVAAPWTEETVKQCLYLYLALLPQNHKLIHELAAVYTEAIADIKRTVLRVIEQPIRGMGMNSPELLLLVENCPKGAETLVTRCLHSLTDKVPPSPELVKRVRDLYHKRLPDVRFLIPVLNGLEKKEVIQALPKLIKLNPIVVKEVFNRLLGTQHGEGNSALSPLNPGELLIALHNIDSVKCDMKSIIKATNLCFAERNVYTSEVLAVVMQQLMEQSPLPMLLMRTVIQSLTMYPRLGGFVMNILSRLIMKQVWKYPKVWEGFIKCCQRTKPQSFQVILQLPPQQLGAVFDKCPELREPLLAHVRSFTPHQQAHIPNSIMTILEASGKQEPEAKEAPAGPLEEDDLEPLTLAPAPAPRPPQDLIGLRLAQEKALKRQLEEEQKLKPGGVGAPSSSSPSPSPSARPGPPPSEEAMDFREEGPECETPGIFISMDDDSGLTEAALLDSSLEGPLPKETAAGGLTLKEERSPQTLAPVGEDAMKTPSPAAEDAREPEAKGNS
B2: RNA polymerase II subunit A C-terminal domain phosphatase SSU72 (Homo sapiens), Q9NP77-1 (parent)
chain: MPSSPLRVAVVCSSNQNRSMEAHNILSKRGFSVRSFGTGTHVKLPGPAPDKPNVYDFKTTYDQMYNDLLRKDKELYTQNGILHMLDRNKRIKPRPERFQNCKDLFDLILTCEERVYDQVVEDLNSREQETCQPVHVVNVDIQDNHEEATLGAFLICELCQCIQHTEDMENEIDELLQEFEEKSGRTFLHTVCFY
partner: B1 chain

Variants of: B1
Settings: with SSU72, Q9NP77-1

Row | effect of a mutation on the interaction | Variant
1 | disrupting interaction | K185A

Variants of: B2
Settings: with sympk_human SYMPK

Row | effect of a mutation on the interaction | Variant
2 | disrupting interaction | MPSSPLRVAVVCSSNQNRSMEAHNILSKRGFSVRSFGTGTHVKLPGPAPDKPNVYDFKTTYDQMYNDLLRKDKELYTQNGILHMLDRNKRIKPRPERFQNCKDLFDLILTCEERVYDQVVEDLNSREQETCQPVHVVNVDIQDNHEEATLGAFLICELCQCIQHTEDMENEIDELLQEFEEKSGRTFLHAACAY
